According to patent US20260199502A1, “BINDING MOLECULE” (priority 2022, published 2026):
Positions count from the first letter of the chain named.

B1: IBIIICI mouse scFv: known ancestral mouse scFv binding the peptide tag moiety, SEQ ID NO:25 (protein, listed as Mus musculus)
scFv: EVRLLQSGAALVRPGASVKLSCTASGFNIKDFNIHWVKQRPEQGLEWIGRIDPENGDAEYVPKFQVRATMTTDTSSNTVYLHLSSLTSGDTAVYYCTTGSYDLDVEYWGQGTTLTVSSGGGGSGGGGSGGGGSGGGGSELQMTQSPSSLSASLGDTVTITCHASQNINVWLSWYQQRPGNIPKLLIYKASTLHTGVPSRFRGSGSGTGFTLTISSLQPEDIATYYCQQGQSYPLTFGAGTKLELK
B2: IBIIICI CDR graft scFv variant NG (wt): original humanized IBIIICI CDR graft scFv, SEQ ID NO:54, NG at positions 62-63 of VH (protein)
scFv: QVQLVQSGAEVKKPGASVKVSCKASGFNIKDFNIHWVRQAPGQGLEWIGRIDPENGDAEYVPKFQGRVTMTRDTSTSTVYMELSSLRSEDTAVYYCTTGSYDLDVEYWGQGTLVTVSSGGGGSGGGGSGGGGSGGGGSDIQMTQSPSSLSASVGDRVTITCHASQNINVWLSWYQQKPGKAPKLLIYKASTLHTGVPSRFSGSGSGTDFTLTISSLQPEDFATYYCQQGQSYPLTFGQGTKLEIK
B3: IBIIICI CDR graft scFv variant SG: humanized scFv point mutated variant, SEQ ID NO:49 (protein)
scFv: B2 scFv with N55S
B4: IBIIICI CDR graft scFv variant QG: humanized scFv point mutated variant, SEQ ID NO:51 (protein)
scFv: B2 scFv with N55Q
B5: IBIIICI CDR graft scFv variant GG: humanized scFv point mutated variant, SEQ ID NO:50 (protein)
scFv: B2 scFv with N55G
B6: IBIIICI CDR graft scFv variant DG: humanized scFv point mutated variant, SEQ ID NO:52 (protein)
scFv: B2 scFv with N55D
B7: IBIIICI CDR graft scFv variant NA: humanized scFv point mutated variant, SEQ ID NO:53 (protein)
scFv: B2 scFv with G56A

Experiments:
[1] = molecular target: panel of 14 peptides (UU0024, UU0070-UU0078, UU0080-UU0083) comprising the tag moiety; test: SPR affinity of captured scFv against a peptide panel (Example 3); format: binding; conditions: SPR single cycle kinetics, peptides 0.16 nM to 100 nM; to most target peptides in the tested panel
Method: Affinity measurements of the IBIIICI mouse scFv and IBIIICI CDR graft scFv variants obtained as described in Examples 1-2 were performed by SPR using a Biacore T200 instrument (GE Healthcare) and single cycle kinetics. Anti-FLAG M2 antibody (Sigma-Aldrich) was immobilized onto a Series S CM5 chip by primary amine coupling using NHS-EDC chemistry according to the manufacturer's instruction, allowing capture of the respective scFv through the FLAG tags provided by the expression vector. A 5-fold dilution series comprising of five concentrations (0.16 nM to 100 nM) of different peptides (Table 2) was sequentially injected over the flow cells, allowing binding to the captured scFv. Following a dissociation phase, regeneration of the surface was accomplished under acidic conditions using 10 mM glycine-HCl at pH 2.1. By subtracting the response curve of a surface having an anti-FLAG antibody immobilized thereto (the reference surface), response unit sensorgrams for all peptides were obtained. Data was analyzed using BIAeval v.3.1 (GE Healthcare).

[2] = Melting temperature (Tm) determination by nanoDSF; format: physicochemical; conditions: inflection point #1, 1.0 mg/ml in PBS, 20-95° C. at 1° C./min
Method: In order to evaluate the stability of the purified scFv variants, the melting temperatures were determined by nanoDSF using a Prometheus NT.48 instrument (NanoTemper Inc). The nanoDSF technology measures the intrinsic fluorescence of a protein while it is being subjected to thermal denaturation, thereby characterizing the unfolding of the protein under native conditions.
The six purified IBIIICI CDR graft scFv variants were diluted to 1.0 mg/ml in PBS and loaded into a high sensitivity capillary (NanoTemper, #PR-C006) through capillary force. A melting temperature ramp was set to between 20° C. and 95° C., with heating at 1° C./min. Tryptophan emission was measured at 330 nm and 350 nm, and the calculated ratio was plotted against temperature to obtain melting curves for each variant. Tm values were deduced using the software PR ThermoControl (NanoTemper Inc).

Molecule	binding affinity [1]	Tm [2] [°C]	Tm ([2]; listed as IBIIICI CDR graft scFv SG) [°C]	Tm ([2]; listed as IBIIICI CDR graft scFv NA) [°C]
B1	low nanomolar			
B2	low nanomolar	63.4		
B3		64.3	64	
B4		62.2		
B5		62.6		
B6		62.4		
B7		60.8		61
